# Experiments:
# CD94/NKG2A = CD94/NKG2A (UniProt Q13241); assay: SPR steady state, Biacore T200, pMHC single chain trimer immobilized, CD94/NKG2A analyte
# CD94/NKG2C = CD94/NKG2C (UniProt Q13241); assay: SPR steady state, Biacore T200, pMHC single chain trimer immobilized, CD94/NKG2C analyte
Substance,Kd (CD94/NKG2A),Kd (CD94/NKG2C)
AKAP6388-396 peptide-HLA-E complex (single chain trimer) (from UniProt P61769 21-119; P13747 22-297) (peptide-MHC),4.1 µM,15.6 µM
GTF3C5293-301 peptide-HLA-E complex (single chain trimer) (from UniProt P61769 21-119; P13747 22-297) (peptide-MHC),28.1 µM,92.4 µM
PISD55-63 peptide-HLA-E complex (single chain trimer) (from UniProt P61769 21-119; P13747 22-297) (peptide-MHC),12.1 µM,16 µM

# These reach a lower Kd (CD94/NKG2A). Values come first.
Kd (CD94/NKG2A),Kd (CD94/NKG2C),Substance
3.3 µM,9.8 µM,CREB3L1419-427 peptide-HLA-E complex (single chain trimer) (from UniProt P61769 21-119; P13747 22-297) (peptide-MHC)
0.8 µM,1.8 µM,BFAR263-271 peptide-HLA-E complex (single chain trimer) (from UniProt P61769 21-119; P13747 22-297) (peptide-MHC)

# — patent US20240092835A1, “NOVEL PEPTIDES CAPABLE OF ALTERING NK CELL ACTIVITY” (Massachusetts Institute of Technology, priority 2022, published 2024)
